# Like-named read-outs stand apart in the source and are kept apart here.
# B1: DEC2-Rhod: Rhodamine labeled sDectin-2 protein (conjugate, UniProt Q6EIG7 42-209, looked up)
# extracellular domain: TYHFTYGETGKRLSELHSYHSSLTCFSEGTKVPAWGCCPASWKSFGSSCYFISSEEKVWSKSEQNCVEMGAHLVVFNTEAEQNFIVQQLNESFSYFLGLSDPQGNNNWQWIDKTPYEKNVRFWHLGEPNHSAEQCASIVFWKPTGWGWNDVICETRRNSICEMNKIYL
# modifications: extracellular domain rhodamine label
# notes: Rhodamine labeled sDectin-2 protein
# B2: sDectin-2: soluble mannan-recognition domain of Dectin-2 (CLEC6A) (protein, UniProt Q6EIG7 42-209, looked up)
# extracellular domain: B1 extracellular domain
# modifications: extracellular domain
# Legend:
# [1] = cited from earlier work
# A. fumigatus = assay: sDectin-2 liposome and DEC2-Rhod binding to A. fumigatus; parameters: species or system Aspergillus fumigatus
# Description: C. albicans CAI4 expressing GFP under control of the ADH1 promoter, A. fumigatus A1163, and wild type C. neoformans H99-alpha were grown in Vogel's Minimal Media (VMM)+1% glucose (85)+0.5% BSA or RPMI 1640 media with no red indicator dye (ThermoFisher SKU— 11835-030)+0.5% BSA or YPD (1% yeast extract, 2% peptone, 2% dextrose) in liquid with shaking or on 24 or 96 well polystyrene microtiter plates or on glass microscope chamber slides and incubated at 37° C. for 3 to 36 hr. Plates were pre-coated with poly-L-lysine for A. fumigatus and glass microscope slides were pre-coated with […]. All fungal cell growth was carried out in a BSL2 laboratory. […]
# Formalin fixed fungal cells were incubated with liposomes at 23° C. in liposome dilution buffer LDB2 (20 mM HEPES, 10 mM Triethoanolamine, 150 mM NaCl, 10 mM CaCl2, 1 mM beta-mercaptoethanol (BME), 5% BSA pH 8.0), wherein the BME was added fresh. […] The area of liposome binding at 20× magnification was quantified by taking an 8-bit grey-scale copy of the unmodified red fluorescent TIF image into Image J (imagej.nih.gov/ij), using Image>Adjust>Threshold>Apply to capture just the red fluorescent areas illuminated by liposomes, and using Analyze>Measure to place the area data for each image in a file. Six to ten photographic images were generally analyzed and averaged for most area estimates. […]
# [2] = cited from earlier work; remark: listed apart in the source
molecule,measurement,setting,value
sDectin-1: soluble extracellular C-terminal beta glucan binding domain of Dectin-1 (CLEC7A),EC50,"[1]; read-out: EC50s for binding various beta-glucans, strong end of range",≥ 2.2e-09 mM
same,EC50,"[1]; read-out: EC50s for binding various beta-glucans, weak end of range",≤ 2 mM
same,Kd,"[1]; read-out: Kd affinity constants for various beta-glucans, strong end of range",≥ 2.2e-09 mM
same,Kd,"[1]; read-out: Kd affinity constants for various beta-glucans, weak end of range",≤ 2.6 mM
B1,binding to A. fumigatus cell wall,A. fumigatus,did not stain the cell wall
same,binding to exopolysaccharide matrix of A. fumigatus,"A. fumigatus; 1 hr, 1:200 dilution",bound strongly to most of the exopolysaccharide matrix surrounding A. fumigatus hyphal cells
B2,EC50,"[2]; read-out: Effective Concentration for 50% of binding (EC50), mannan-a-1-2-mannan",~2 mM
same,EC50,"[2]; read-out: Effective Concentration for 50% of binding (EC50), mannoglycan",~0.15 mM
same,EC50,"[2]; read-out: Effective Concentration for 50% of binding (EC50), mannose",~20 mM
